Results as given in patent US20260000752A1 (AKSTON BIOSCIENCES, published 2026).

Target: SARS-CoV-2-RBD-hIgG-Fc fusion protein of SEQ ID NO: 19

Row | Binder | EC50 [µg/mL]
1 | recombinant human Fc(gamma)RIIa, biotinylated (R&D Systems) (receptor) AAPPKAVLKLEPPWINVLQEDSVTLTCQGARSPESDSIQWFHNGNLIPTHTQPSYRFKANNNDSGEYTCQTGQTSLSDPVHLTVLSEWLVLQTPHLEFQEGETIMLRCHSWKDKPLVKVTFFQNGKSQKFSHLDPTFSIPQANHSHSGDYHCTGNIGYTLFSSKPVTITVQVPSMGSSSPMGI | 2.28
2 | recombinant human Fc(gamma)RIIb, biotinylated (R&D Systems) (receptor) APPKAVLKLEPQWINVLQEDSVTLTCRGTHSPESDSIQWFHNGNLIPTHTQPSYRFKANNNDSGEYTCQTGQTSLSDPVHLTVLSEWLVLQTPHLEFQEGETIVLRCHSWKDKPLVKVTFFQNGKSKKFSRSDPNFSIPQANHSHSGDYHCTGNIGYTLYSSKPVTITVQAP | 2.05
3 | recombinant human Fc(gamma)RI, biotinylated (R&D Systems) (receptor, UniProt P12314 16-288, looked up) QVDTTKAVITLQPPWVSVFQEETVTLHCEVLHLPGSSSTQWFLNGTATQTSTPSYRITSASVNDSGEYRCQRGLSGRSDPIQLEIHRGWLLLQVSSRVFTEGEPLALRCHAWKDKLVYNVLYYRNGKAFKFFHWNSNLTILKTNISHNGTYHCSGMGKHRYTSAGISVTVKELFPAPVLNASVTSPLLEGNLVTLSCETKLLLQRPGLQLYFSFYMGSKTLRGRNTSSEYQILTARREDSGLYWCEAATEDGNVLKRSPELELQVLGLQLPTP | 0.0339
4 | human Fc(gamma)RIIIb (receptor) GMRTEDLPKAVVFLEPQWYSVLEKDSVTLKCQGAYSPEDNSTQWFHNENLISSQASSYFIDAATVNDSGEYRCQTNLSTLSDPVQLEVHIGWLLLQAPRWVFKEEDPIHLRCHSWKNTALHKVTYLQNGKDRKYFHHNSDFHIPKATLKDSGSYFCRGLVGSKNVSSETVNITITQGLAVSTIS | 11.7
